Laboratory results taken from patent US20160115226A1 (SINGH MOLECULAR MEDICINE, published 2016).
Where two headings read alike, the source gives them in different places.

What was measured:
[1] = target: GST-STAT3 (16 kDa monovalent antigen, Creative BioMart #STAT3-1476H) (UniProt P40763)
[2] = target: GST-STAT3 (16 kDa monovalent antigen, Creative BioMart #STAT3-1476H) (UniProt P40763); remark: listed apart in the source
[3] = target: GST-STAT3 (16 kDa monovalent antigen, Creative BioMart #STAT3-1476H) (UniProt P40763); remark: listed apart in the source
[4] = target: endogenous STAT3 in human cancer cell lysates (MDA-MB-231, PANC-1, DU145) (human, UniProt P40763 2-770)
Sequence of endogenous STAT3 in human cancer cell lysates (MDA-MB-231, PANC-1, DU145) (P40763 2-770 limits assumed): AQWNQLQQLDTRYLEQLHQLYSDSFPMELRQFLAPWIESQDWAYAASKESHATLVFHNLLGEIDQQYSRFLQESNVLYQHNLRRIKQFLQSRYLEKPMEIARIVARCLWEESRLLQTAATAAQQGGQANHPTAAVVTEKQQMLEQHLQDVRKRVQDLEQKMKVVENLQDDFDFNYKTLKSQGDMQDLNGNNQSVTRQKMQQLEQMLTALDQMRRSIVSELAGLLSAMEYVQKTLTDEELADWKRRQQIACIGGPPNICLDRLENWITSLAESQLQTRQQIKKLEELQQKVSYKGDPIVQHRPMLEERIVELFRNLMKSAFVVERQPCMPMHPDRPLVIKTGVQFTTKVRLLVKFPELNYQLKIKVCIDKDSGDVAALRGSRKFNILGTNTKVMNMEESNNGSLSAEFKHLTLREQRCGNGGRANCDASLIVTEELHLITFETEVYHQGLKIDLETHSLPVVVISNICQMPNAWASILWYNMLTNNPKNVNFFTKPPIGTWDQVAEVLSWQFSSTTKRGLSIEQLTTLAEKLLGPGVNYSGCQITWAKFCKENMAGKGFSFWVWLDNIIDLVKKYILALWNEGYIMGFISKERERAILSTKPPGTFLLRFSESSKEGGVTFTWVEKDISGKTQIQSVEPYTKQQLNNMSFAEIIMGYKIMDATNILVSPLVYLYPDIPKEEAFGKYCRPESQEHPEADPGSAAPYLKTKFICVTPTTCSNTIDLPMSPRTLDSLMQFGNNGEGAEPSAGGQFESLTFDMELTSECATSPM

Kd [1]	koff [1]	kon [1]	Kd [2]	koff [2]	kon [2]	Kd [3]	koff [3]	kon [3]	binding result [4]	Molecule
29.2 nM	0.00048 s⁻¹	16500 M⁻¹ s⁻¹	4.32 nM	0.000386 s⁻¹	89300 M⁻¹ s⁻¹	67.5 nM	0.000801 s⁻¹	11900 M⁻¹ s⁻¹		anti-KRAS (negative control) (VHH)
									binds	STAT3 VHH13 (SEQ ID NO:3) produced and isolated from mammalian cells (VHH) VHH: HVQLVESGGGSVQAGGSLRLSCAASGANGGRSCMGWFRQVPGKEREGVSGISTGGLITYYADSVKGRFTISQDNTKNTLYLQMNSLKPEDTAMYYCATSRFDCYRGSWFNRYMYNSWGQGTQVTVSS
